Reference: patent US10772928B2, “Modulation and detection of a neuronal alternative splicing regulatory network for treatment and diagnosis of neurological disorders” (The Governing Council of the University of Toronto, priority 2014, dated 2020)

T1: nSR100 (Mus musculus, UniProt Q8BKA3)
T1 construct: host or cells: mouse N2A cells
T1 sequence (Q8BKA3 1-608): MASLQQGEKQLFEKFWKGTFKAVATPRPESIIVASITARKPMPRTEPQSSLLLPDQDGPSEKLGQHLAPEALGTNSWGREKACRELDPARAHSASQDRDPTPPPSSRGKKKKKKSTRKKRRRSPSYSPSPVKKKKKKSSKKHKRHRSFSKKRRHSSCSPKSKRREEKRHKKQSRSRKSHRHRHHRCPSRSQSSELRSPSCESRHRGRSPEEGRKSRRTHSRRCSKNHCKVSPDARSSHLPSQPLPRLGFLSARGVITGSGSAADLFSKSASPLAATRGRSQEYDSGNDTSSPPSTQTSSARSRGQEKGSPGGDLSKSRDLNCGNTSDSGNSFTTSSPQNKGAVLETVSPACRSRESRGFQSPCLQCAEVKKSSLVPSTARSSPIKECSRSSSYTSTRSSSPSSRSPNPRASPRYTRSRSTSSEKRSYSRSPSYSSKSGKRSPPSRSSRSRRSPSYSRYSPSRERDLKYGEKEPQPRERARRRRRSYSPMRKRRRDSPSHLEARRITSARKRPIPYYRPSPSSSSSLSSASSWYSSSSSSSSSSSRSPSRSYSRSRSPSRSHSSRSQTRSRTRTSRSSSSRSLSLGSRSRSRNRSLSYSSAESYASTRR


Target: T1, nSR100
Test: AP-MS nSR100 interaction partners from mouse N2A cells (Table 5)
Type: binding
Conditions: for AvgP (average of the SAINT scores) / MaxP (maximal SAINT score): bait Srrm4; for FoldChange between the prey Avg spectra of the bait and control purifications: bait Srrm4, 0.1 added to prevent division by 0; for AvgSpec (average number of spectra per replicate): bait Srrm4, 2 replicates; for Spectra (number of spectra for the prey in the purification of the bait): AP-MS; for SpecSum: bait Srrm4, sum of spectra over 2 replicates
[1] = bait Srrm4, biological replicate 1 (first number of the cell)
[2] = bait Srrm4, biological replicate 2 (second number of the cell)

From the text: By applying affinity purification coupled to mass-spectrometry (AP-MS), several interaction nSR100 partner proteins were detected that provide insight into mechanisms of post-translational regulation of nSR100 levels.

Molecule	AvgP (average of the SAINT scores)	MaxP (maximal SAINT score)	FoldChange between the prey Avg spectra of the bait and control purifications	AvgSpec (average number of spectra per replicate)	Spectra (number of spectra for the prey in the purification of the bait) [1]	Spectra (number of spectra for the prey in the purification of the bait) [2]	SpecSum
Rbmx2 (protein, UniProt Q8R0F5 1-326, looked up) RNA-binding motif protein, …: MNPLTKVKLINELNEREVQLGVAEKVSWHSEYKHSAWIFVGGLPYELTEGDIICVFSQYGEIVNINLVRDKKTGKSKGFCFLCYEDQRSTVLAVDNFNGIKIKGRTIRVDHVSNYRAPQESEDVDDVTRELQEKGCGVKTPPSSPPEVSEDEDAKLTKKHKKDKKEKKKRKKEKTEGQAQAEQPSCSRSATVKEKKDERASRKHSSKTSERAQKSEHRESKKSHSGSPDGRSSYHARAEDPECKARKEKPKHEHKSASRREAEEKSRERERGRSSGTHSGRHRGHSDGRSHRSRSRSRSPDKSHRHKKYRHSRERDSYHGSDRRHH	0.96	0.98	9	4.5	4	5	9
Luc7l (protein, UniProt Q9CYI4 1-371, looked up) Putative RNA-binding protein …: MSAQAQMRALLDQLMGTARDGDETRQRVKFTDDRVCKSHLLDCCPHDILAGTRMDLGECTKIHDLALRADYEIASKERDLFFELDAMDHLESFIAECDRRTELAKKRLAETQEEISAEVSAKAEKVHELNEEIGKLLAKAEQLGAEGNVDESQKILMEVEKVRAKKKEAEEEYRNSMPASSFQQQKLRVCEVCSAYLGLHDNDRRLADHFGGKLHLGFIQIREKLDQLRKTVAEKQEKRNQDRLRRREEREREERLGRRSGSRTRDRRRSRSRDRRRRRSRSTSRERRKFSRSRSRDRYRRHRSRSRSHSRGHRRASRDRSTKYKFSRERSLREESWEYGRNERGPTDWRLENSNGKTASRRSEEKEAGEI	0.95	0.99	3.17	19	18	20	38
Bcas2 (protein, UniProt Q9D287 2-225, looked up) Pre-mRNA-splicing factor SPF27: AGTGLVAGEVVVDALPYFDQGYEAPGVREAAAALVEEETRRYRPTKNYLSYLTAPDYSAFETDIMRNEFERLAARQPIELLSMKRYELPAPSSGQKNDITAWQECVNNSMAQLEHQAVRIENLELMSQHGCNAWKVYNENLVHMIEHAQKELQKLRKHIQDLNWQRKNMQLTAGSKLREMESNWVSLVSKNYEIERTIVQLENEIYQIKQQHGEANKENIRQDF	0.97	0.99	25	2.5	2	3	5
Ddx6 (protein, UniProt P54823 1-483, looked up) Probable ATP-dependent RNA …: MSTARTENPVIMGLSSQNGQLRGPVKASAGPGGGGTQPQPQLNQLKNTSTINNGTPQQAQSMAATIKPGDDWKKTLKLPPKDLRIKTSDVTSTKGNEFEDYCLKRELLMGIFEMGWEKPSPIQEESIPIALSGRDILARAKNGTGKSGAYLIPLLERLDLKKDNIQAMVIVPTRELALQVSQICIQVSKHMGGAKVMATTGGTNLRDDIMRLDDTVHVVIATPGRILDLIKKGVAKVDHVQMIVLDEADKLLSQDFVQIMEDIILTLPKNRQILLYSATFPLSVQKFMNSHLQKPYEINLMEELTLKGVTQYYAYVTERQKVHCLNTLFSRLQINQSIIFCNSSQRVELLAKKISQLGYSCFYIHAKMRQEHRNRVFHDFRNGLCRNLVCTDLFTRGIDIQAVNVVINFDFPKLAETYLHRIGRSGRFGHLGLAINLITYDDRFNLKSIEEQLGTEIKPIPSNIDKSLYVAEYHSEPAEDEKP	0.97	1	30	3	2	4	6

The next lines start with the values.

AvgP (average of the SAINT scores)	MaxP (maximal SAINT score)	FoldChange between the prey Avg spectra of the bait and control purifications	AvgSpec (average number of spectra per replicate)	Spectra (number of spectra for the prey in the purification of the bait) [1]	Spectra (number of spectra for the prey in the purification of the bait) [2]	SpecSum	Molecule
0.97	1	30	3	2	4	6	Sf3a2 (protein, UniProt Q62203 1-475, looked up) Splicing factor 3A subunit 2: MDFQHRPGGKTGSGGVASSSESNRDRRERLRQLALETIDINKDPYFMKNHLGSYECKLCLTLHNNEGSYLAHTQGKKHQTNLARRAAKEAKEAPAQPAPEQVKVEVKKFVKIGRPGYKVTKQRDTEMGQQSLLFQIDYPEIAEGIMPRHRFMSAYEQRIEPPDRRWQYLLMAAEPYETIAFKVPSREIDKAEGKFFFLQFHFKMEKPPAPPSLPAGPPGVKRPPPPLMNGLPPRPPLPDALPPPPPGGLPLPPMPPTGPAPSGPPGPPQMPPPAPGVHPPAPVVHPPTSGVHPPAPGVHPPAPVVHPPTSGVHPPAPGVHPPTPGVHPPAPGVHPPAPGVHPPAPGVHPPTPGVHPPAPGVHPPAPGVHPPAPGVHPPPSAGVHPQAPGVHPPAPAVHPQAPGVHPPAPGIHPQAPGVHPQPPPGVHPAAPGVHPQPPGVHPSNPGVHPAPMPPMLRPPLPSDGPGNMPPPPPGN
0.97	0.99	25	2.5	2	3	5	Wbp11 (protein, UniProt Q923D5 1-641, looked up) WW domain-binding protein 11: MGRRSTSSTKSGKFMNPTDQARKEARKRELKKNKKQRMMVRAAVLKMKDPKQIIRDMEKLDEMEFNPVQQPQLNEKVLKDKRKKLRETFERILRLYEKENPDIYKELRKLEVEYEQKRAQLSQYFDAVKNAQHVEVESIPLPDMPHAPSNILIQDIPLPGAQPPSILKKTSAYGPPARAVSILPLLGHGVPRLPPGRKPPGPPPGPPPPQVLQMYGRKVGFALDLPPRRRDEDMLYSPELAQRGHDDDMSSTSEDDGYPEDMDQDKHDDSTEDSDTDRSDAESDGDEFGHREDSERDNTEEKKSGLSVRFADMPGKSRKKKKNMKELTPLQAMMLRMAGQEIPEEGREVEEFSEEEDADDSDDSEAEKQSQKQHKDDGHSDSTAAASSQQQAPPQSAPASQIQAPPMPGPPPLGPPPAPPLRPPGPPTGLPPGPPPGAPPFLRPPGMPGIRGPLPRLLPPGPPPGRPPGPPPGPPPGLPPGPPPRGPPPRLPPPAPPGIPPPRPGMMRPPLVPPLGPAPPGLFPPAPLPNPGVLSAPPSLIQRPKADDASAATIEKKATATISAKPQITNPKAEVTRFVPTALRVRRENKGATAVPQRRSEDDSAVPVAKAAPRSGPSVAVSVQTKDDVYEAFMKEMEGLL
0.96	0.96	3.08	20	20|20	20|20	40	Sf3b2 (protein, UniProt Q3UJB0 1-878, looked up) Splicing factor 3B subunit 2: MAAEHPEPPKGELQLPPPPPPGHYGAWAAQELQARLAEIGAPIQGSREELVERLQTYTRQTGIVLNRPVLRGEDGDKAAPPPMSAQLSGIPMPPPPMGLPPLQPPPPPPPPPPGLGLGFPMAHPPNLGPPPPLRVGEPVALSEEERLKLAQQQAALLMQQEERAKQAAVLMEQERQQEIAKMGTAVPRPPQDMGQLGVRTPLGPRVAAPVGPVVPTPTVLPMGAPVPRPRGPPPPPGDENREMDDPSVGPKIPQALEKILQLKESRQEEMNSQQEEEEMETDTRSSLGQSASETEEDTVSISKKEKNRKRRNRKKKKKPQRVRAASSESSGDREKDSGRSRGSDPPAADVEIEYVTEEPEIYEPNFIFFKRIFEAFKLTDDVKKEKEKEPEKLDKMESSAVPKKKGFEEEHKDSDDDSSDDEQEKKPEAPKLSKKKLRRMNRFTVAELKQLVARPDVVEMHDVTAQDPKLLVHLKATRNSVPVPRHWCFKRKYLQGKRGIEKPPFELPDFIKRTGIQEMREALQEKEEQKTMKSKMREKVRPKMGKIDIDYQKLHDAFFKWQTKPKLTIHGDLYYEGKEFETRLKEKKPGDLSDELRISLGMPVGPNAHKVPPPWLIAMQRYGPPPSYPNLKIPGLNSPIPESCSFGYHAGGWGKPPVDETGKPLYGDVFGTNAAEFQTKTEEEEIDRTPWGELEPSDEESSEEEEEEESDEDKPDETGFITPADSGLITPGGFSSVPAGMETPELIELRKKKIEEAMDGSETPQLFTVLPEKRTATVGGAMMGSTHIYDMSTVMSRKGPAPELQGVEVALAPEELELDPMAMTQKYEEHVREQQAQVEKEDFSDMVAEHAAKQKQKKRKAQPQDSRGGSKKYKEFKF
